First the molecules themselves.
B1: RAD54B (parent)
chain: YVQEKRDGLKRRQQLEEELLRAKI
B2: VPS39 (parent)
chain: TTLLKCYLHTNVALVAPLLRLENN
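Further: lentivirally expressed fusions sorted by FACS into six bins by GFP to DsRed ratio, PSI derived from sequencing read proportions per bin multiplied by bin number.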

The variants in one data set derive from B1. The data set can be described thus: protein stability index of a GFP-peptide fusion (GPS, HEK-293T) (PSI 1-6); higher = more stable. The conditions noted are these: c terminus: a fixed tail appended.
As for IVQEKRDGLKRRQQLEEELLRAKI [Y1I], the protein stability index came out at 3.14.

On to TVQEKRDGLKRRQQLEEELLRAKI [Y1T], for which the protein stability index came out at 3.59. With GVQEKRDGLKRRQQLEEELLRAKI [Y1G], the protein stability index was found to be 4.19. On the same count and under the same terms, next, VVQEKRDGLKRRQQLEEELLRAKI [Y1V]: 2.81. On the same count and under the same terms, next, WVQEKRDGLKRRQQLEEELLRAKI [Y1W]: 3.92; LVQEKRDGLKRRQQLEEELLRAKI [Y1L]: 3.56.

As to KVQEKRDGLKRRQQLEEELLRAKI [Y1K], the protein stability index came to 3.74. Same read-out and setting: next, PVQEKRDGLKRRQQLEEELLRAKI [Y1P]: 3.89.

Regarding RVQEKRDGLKRRQQLEEELLRAKI [Y1R], the protein stability index worked out at 3.77. With EVQEKRDGLKRRQQLEEELLRAKI [Y1E], the protein stability index is 3.68.

For the variant MVQEKRDGLKRRQQLEEELLRAKI [Y1M], the protein stability index worked out at 3.95. The same measure, in the same setting: then YVQEKRDPLKRRQQLEEELLRAKI [G8P], with 2.12; and YVQEKRDHLKRRQQLEEELLRAKI [G8H], with 1.92; and YVQEKRDALKRRQQLEEELLRAKI [G8A], with 1.82. For YVQEKRDSLKRRQQLEEELLRAKI [G8S], the protein stability index was 1.99. Turning to YVQEKRDILKRRQQLEEELLRAKI [G8I], the protein stability index was 1.99. Take YVQEKRDDLKRRQQLEEELLRAKI [G8D]: the protein stability index was determined as 2.27.

Take YVQEKRDKLKRRQQLEEELLRAKI [G8K]: the protein stability index came out at 2.33. The same measure, in the same setting: next, YVQEKRDLLKRRQQLEEELLRAKI [G8L]: 2.45; YVQEKRDNLKRRQQLEEELLRAKI [G8N]: 1.49; YVQEKRDFLKRRQQLEEELLRAKI [G8F]: 2.27.

Turning to YVQEKRDCLKRRQQLEEELLRAKI [G8C], the protein stability index worked out at 1.98. Take YVQEKRDWLKRRQQLEEELLRAKI [G8W]: the protein stability index came to 3.6. Regarding YVQEKRDYLKRRQQLEEELLRAKI [G8Y], the protein stability index came out at 2.12. Turning to YVQEKRDTLKRRQQLEEELLRAKI [G8T], the protein stability index amounted to 1.74. As to YVQEKRDRLKRRQQLEEELLRAKI [G8R], the protein stability index turned out to be 2.28. For the variant YVQEKRDVLKRRQQLEEELLRAKI [G8V], the protein stability index stood at 2.11. Turning to YVQEKRDELKRRQQLEEELLRAKI [G8E], the protein stability index was 2.59. Same read-out and setting: next, YVQEKRDQLKRRQQLEEELLRAKI [G8Q]: 2.01. Same read-out and setting: next, YVQEKRDMLKRRQQLEEELLRAKI [G8M]: 2.29; YVQEHRDGLKRRQQLEEELLRAKI [K5H]: 2.26. As to YVQEVRDGLKRRQQLEEELLRAKI [K5V], the protein stability index was determined as 2.1.

On to YVQEWRDGLKRRQQLEEELLRAKI [K5W], for which the protein stability index came out at 2.11. Regarding YVQECRDGLKRRQQLEEELLRAKI [K5C], the protein stability index was determined as 2.16. Regarding YVQEMRDGLKRRQQLEEELLRAKI [K5M], the protein stability index turned out to be 2.25. For the variant YVQETRDGLKRRQQLEEELLRAKI [K5T], the protein stability index is 1.74. In the case of YVQEPRDGLKRRQQLEEELLRAKI [K5P], the protein stability index was 2.05. In the case of YVQENRDGLKRRQQLEEELLRAKI [K5N], the protein stability index was 2.19. YVQEARDGLKRRQQLEEELLRAKI [K5A]: the protein stability index is 1.96. With YVQERRDGLKRRQQLEEELLRAKI [K5R], the protein stability index was determined as 1.86. As for YVQEDRDGLKRRQQLEEELLRAKI [K5D], the protein stability index turned out to be 3.46. On to YVQESRDGLKRRQQLEEELLRAKI [K5S], for which the protein stability index stood at 2.56. Take YVQEIRDGLKRRQQLEEELLRAKI [K5I]: the protein stability index amounted to 2.77.

Take YVQEERDGLKRRQQLEEELLRAKI [K5E]: the protein stability index was found to be 3.57. The same measure, in the same setting: next, YVQEYRDGLKRRQQLEEELLRAKI [K5Y]: 2.4; YVQELRDGLKRRQQLEEELLRAKI [K5L]: 1.96. On to YVQEQRDGLKRRQQLEEELLRAKI [K5Q], for which the protein stability index was 2.48. For the variant YVQEGRDGLKRRQQLEEELLRAKI [K5G], the protein stability index came out at 1.91.

Turning to YVQEFRDGLKRRQQLEEELLRAKI [K5F], the protein stability index came to 2.49.

As to YVQEKRTGLKRRQQLEEELLRAKI [D7T], the protein stability index is 3.69. Same read-out and setting: next, YVQEKRYGLKRRQQLEEELLRAKI [D7Y]: 1.39. For YVQEKRFGLKRRQQLEEELLRAKI [D7F], the protein stability index was found to be 1.54.

Regarding YVQEKRGGLKRRQQLEEELLRAKI [D7G], the protein stability index came out at 1.88. YVQEKRKGLKRRQQLEEELLRAKI [D7K]: the protein stability index was 2.16. As to YVQEKRAGLKRRQQLEEELLRAKI [D7A], the protein stability index is 1.87. Take YVQEKRVGLKRRQQLEEELLRAKI [D7V]: the protein stability index came out at 1.47.

For the variant YVQEKRPGLKRRQQLEEELLRAKI [D7P], the protein stability index amounted to 1.88. Still for that read-out and setting: then YVQEKRIGLKRRQQLEEELLRAKI [D7I], with 2.13; and YVQEKREGLKRRQQLEEELLRAKI [D7E], with 1.96; and YVQEKRMGLKRRQQLEEELLRAKI [D7M], with 1.79. As to YVQEKRRGLKRRQQLEEELLRAKI [D7R], the protein stability index amounted to 2.37. With YVQEKRNGLKRRQQLEEELLRAKI [D7N], the protein stability index was determined as 1.81. Regarding YVQEKRHGLKRRQQLEEELLRAKI [D7H], the protein stability index worked out at 1.67. With YVQEKRQGLKRRQQLEEELLRAKI [D7Q], the protein stability index came to 2.21. Regarding YVQEKRSGLKRRQQLEEELLRAKI [D7S], the protein stability index stood at 2.37. For the variant YVQEKRWGLKRRQQLEEELLRAKI [D7W], the protein stability index is 2.14. Same read-out and setting: next, YVQEKRCGLKRRQQLEEELLRAKI [D7C]: 3.13; YVQEKRLGLKRRQQLEEELLRAKI [D7L]: 1.46.

In another data set the parent is B2. The description is as above. To be noted: c terminus: a fixed tail appended.
With TTLLKCYLHTNVALVAPLLRLSNN [E22S], the protein stability index amounted to 2.82.

As to TTLLKCYLHTNVALVAPLLRLVNN [E22V], the protein stability index was 1.69.

In the case of TTLLKCYLHTNVALVAPLLRLWNN [E22W], the protein stability index is 1.4.

As to TTLLKCYLHTNVALVAPLLRLENH [N24H], the protein stability index stood at 3.11. Consider TTLLKCYLHTNVALVAPLLRLEND [N24D], for which the protein stability index was 2.7.

With TTLLKCYLHTNVALVAPLLRLENK [N24K], the protein stability index was 2.08. Still for that read-out and setting: then TTLLKCYLHTNVALVAPLLRLENQ [N24Q], with 3.12; and TTLLKCYLHTNVALVAPLLRLENL [N24L], with 3.19. The same measure, in the same setting: next, TTLLKCYLHTNVALVAPLLRLENC [N24C]: 3.2; TTLLKCYLHTNVALVAPLLRLENI [N24I]: 2.02; TTLLKCYLHTNVALVAPLLRLENV [N24V]: 1.5.

TTLLKCYLHTNVALVAPLLRLEAN [N23A]: the protein stability index is 2.22. The same measure, in the same setting: next, TTLLKCYLHTNVALVAPLLRLEMN [N23M]: 2.81. For the variant TTLLKCYLHTNVALVAPLLRLERN [N23R], the protein stability index amounted to 2.37.

TTLLKCYLHTNVALVAPLLRLEQN [N23Q]: the protein stability index amounted to 3.88. TTLLKCYLHTNVALVAPLLRLEIN [N23I]: the protein stability index was determined as 2.67. Still for that read-out and setting: then TTLLKCYLHTNVALVAPLLRLEVN [N23V], with 2.67; and TTLLKCYLHTNVALVAPLLRLELN [N23L], with 2.85; and TTLLKCYLHTNVALVAPLLRLEWN [N23W], with 1.88.

As for TTLLKCYLHTNVALVAPLLRLECN [N23C], the protein stability index was found to be 2.8.

As to TTLLKCYLHTNVALVAPLLRLEHN [N23H], the protein stability index turned out to be 2.29. On to TTLLKCYLHTNVALVAPLLRLEFN [N23F], for which the protein stability index was 2.11. Turning to TTLLKCYLHTNVALVAPLLRLETN [N23T], the protein stability index came out at 2.32. On to TTLLKCYLHTNVALVAPLLRLEKN [N23K], for which the protein stability index was 2.27. For TTLLKCYLHTNVALVAPLLRLEYN [N23Y], the protein stability index is 2.99. In the case of TTLLKCYLHTNVALVAPLLRLEEN [N23E], the protein stability index was found to be 2.49.

For the origin of these results see the supplement of paper PMC10567573.
